From patent US20110172168A1 (MEDIGENE, published 2011)
Changes are numbered by the printed parent chain. “And” between values parts separate entries of the source, which are not always exact repeats. Equal values may be shown once.

B1: soluble high affinity c83 (SEQ ID NO: 19) ILT-like polypeptide (receptor)
chain: MAGHLPKPTLWAEPGSVITMDQPVTLRCQGGQETQEYRLYREKKTAPWITRIPQELVKKGQFPIPSITWEHAGRYRCYYGSDTSQWSASSDPLELVVTGVYIKPTLSAQPSPVVNSGGNVTLQCDSQVAFDGFILCKEGEDEHPQCLNSQPHARGSSRAIFSVGPVSPSRRWWYRCYAYMSWSPYEWSLPSDLLELDVDG
notes: also called clone 83 (c83) ILT-2 polypeptide
B2: SEQ ID NO 31 (receptor)
chain: MGHLPKPTLWAEPGSVITMDQPVTLRCQGGQETQEYRLYREKKTAPWITRIPQELVKKGQFPIPSITWEHAGRYRCYYGSDTAGRSESSDPLELVVTGVYIKPTLSAQPSPVVNSGGNVTLQCDSQVAFDGFILCKEGEDEHPQCLNSQPHARGSSRAIFSVGPVSPSRRWWYRCYAYPIWTPYEWSLPSDLLELDVDG
B3: SEQ ID NO 33 (receptor)
chain: B2 chain with P179V, I180A, T182A
B4: SEQ ID NO 35 (receptor)
chain: B2 chain with P179M, I180N, T182A
B5: SEQ ID NO 37 (receptor)
chain: B2 chain with I180A
B6: SEQ ID NO 39 (receptor)
chain: B2 chain with P179M, I180S, T182A
B7: SEQ ID NO 41 (receptor)
chain: B2 chain with P179M, I180S, T182S
B8: SEQ ID NO 61 (receptor)
chain: MGHLPKPTLWAEPGSVITMDQPVTLRCQGGQETQEYRLYREKKTAPWITRIPQELVKKGQFPIPSITWEHAGRYRCYYGSDTSQWSASSDPLELVVTGVYIKPTLSAQPSPVVNSGGNVTLQCDSPWVADGFILCKEGEDEHPQCLNSQPHARGSSRAIFSVGPVSPSRRWWYRCYAYMSWSPYEWSLPSDLLELDVDG
B9: SEQ ID NO 62 (receptor)
chain: B8 chain with W127F, V128L, A129T
B10: SEQ ID NO 63 (receptor)
chain: B8 chain with V128L
B11: SEQ ID NO 64 (receptor)
chain: B8 chain with W127F, V128Q
B12: SEQ ID NO 65 (receptor)
chain: B8 chain with W127F, V128I, D130E
B13: SEQ ID NO 66 (receptor)
chain: B8 chain with W127F, V128L, A129S, R170K
B14: SEQ ID NO 67 (receptor)
chain: B8 chain with W127F, A129S
B15: SEQ ID NO 69 (receptor)
chain: B8 chain with P126M, W127F, V128L, A129V
B16: SEQ ID NO 29 (receptor)
chain: MHLPKPTLWAEPGSVITLQSPVTLRCQGGQETQQYRLYREKKTAPWITRIPQELVKKGQFPIPSITWEHAGRYRCYYGSDTRQWSASSDPLELVVTGVYIKPTLSAQPSPVVNSGGNVTLQCDSQVAFDGFILCKEGEDDHPQCLNSQPHARGSSRAIFSVGPVSPSRRWRYRCYAYMSWSPYEWSLPSDLLELDVDG
B17: SEQ ID NO 6 (receptor)
chain: B16 chain with M178D, W180N
B18: SEQ ID NO 24 (receptor)
chain: B16 chain with M178P, S179I, S181T
B19: SEQ ID NO 25 (receptor)
chain: B16 chain with M178V, S179A, S181A
B20: SEQ ID NO 26 (receptor)
chain: B16 chain with S179N, S181A
B21: SEQ ID NO 27 (receptor)
chain: B16 chain with M178P, S179A, S181T
B22: SEQ ID NO 28 (receptor)
chain: B16 chain with S181A
B23: SEQ ID NO 42 (receptor)
chain: B16 chain with V22L, M178D, W180N
B24: SEQ ID NO 49 (receptor)
chain: B16 chain with V22L
B25: SEQ ID NO 50 (receptor)
chain: B16 chain with V22L, S181A
B26: SEQ ID NO 60 (receptor)
chain: MGHLPKPTLWAEPGSVITMDQPVTLRCQGGQETQQYRLYREKKTAPWITRIPQELVKKGQFPIPSITWEHAGRYRCYYGSDTRQWSASSDPLELVVTGVYIKPTLSAQPSPVVNSGGNVTLQCDSQVAFDGFILCKEGEDDHPQCLNSQPHARGSSRAIFSVGPVSPSRRWRYRCYAYDSNSPYEWTRGSDLLELDVDG
B27: SEQ ID NO 22 (receptor)
chain: MAGHLPKPTLWAEPGSVITMDQPVTLRCQGGQETQEYRLYREKKTAPWITRIPQELVKKGQFPIPSITWEHAGRYRCYYGSDTSQWSASSDPLELVVTGVYIKPTLSAQPSPVVNSGGNVTLQCDSQVAFDGFILCKEGEDEHPQCLNSQPHARGSSRAIFSVGPVSPSRRWWYRCYAYGRWLPYEWSLPSDLLELDVD

What follows are binders tested against Class I pMHC on Mel 624 target cells (assay: cell-based or functional assay).
With B1 the “Average IC50, inhibition of CTL activation (IFN-γ ELISPOT)” value was 0.096 µM and the “IC50, inhibition of CTL activation (IFN-γ ELISPOT, Mel 624 target cells, MART-1 specific T cell clone KA/C5)” value was 0.076 µM and 0.094 µM and 0.117 µM.

Each binder was assayed against T1, CEA-derived … (SEQ ID NO: 71)-HLA-A*0201 complex (biotin on the C-terminal biotinylation tag (enzymatic, BirA)) (assay: Biacore SPR, pMHC immobilised).
T1 construct: also called soluble biotinylated HLA-A2-peptide complex; not shown: C-terminal biotinylation tag that replaces the transmembrane and cytoplasmic domains
Method: SPR measures changes in refractive index expressed in response units (RU) near a sensor surface within a small flow cell, a principle that can be used to detect receptor ligand interactions and to analyse their affinity and kinetic parameters. The probe flow cells were prepared by immobilising the pMHC complexes in flow cells via biotin-tag binding. The assay was then performed by passing soluble ILT over the surfaces of the different flow cells at a constant flow rate, measuring the SPR response in doing so.
B1 was tested, and the Kd was ≤ 1 µM and the koff was ≤ 2 s⁻¹.
In the case of B2, the Kd is reported as ≤ 1 µM and the koff is reported as ≤ 2 s⁻¹.
In the case of B3, the Kd is reported as ≤ 1 µM and the koff is reported as ≤ 2 s⁻¹.
With B4 the Kd was ≤ 1 µM and the koff was ≤ 2 s⁻¹.
B5 was tested, and the Kd was ≤ 1 µM and the koff was ≤ 2 s⁻¹.
For B6, the Kd was ≤ 1 µM and the koff was ≤ 2 s⁻¹.
With B7 the Kd was ≤ 1 µM and the koff was ≤ 2 s⁻¹.
With B8 the Kd was ≤ 1 µM and the koff was ≤ 2 s⁻¹.
With B9 the Kd was ≤ 1 µM and the koff was ≤ 2 s⁻¹.
With B10 the Kd was ≤ 1 µM and the koff was ≤ 2 s⁻¹.
With B11 the Kd was ≤ 1 µM and the koff was ≤ 2 s⁻¹.
For B12, the Kd was ≤ 1 µM and the koff was ≤ 2 s⁻¹.
In the case of B13, the Kd is reported as ≤ 1 µM and the koff is reported as ≤ 2 s⁻¹.
B14 was tested, and the Kd was ≤ 1 µM and the koff was ≤ 2 s⁻¹.
In the case of B15, the Kd is reported as ≤ 1 µM and the koff is reported as ≤ 2 s⁻¹.
In the case of B16, the Kd is reported as ≤ 1 µM and the koff is reported as ≤ 2 s⁻¹.
In the case of B17, the Kd is reported as ≤ 1 µM and the koff is reported as ≤ 2 s⁻¹.
In the case of B18, the Kd is reported as ≤ 1 µM and the koff is reported as ≤ 2 s⁻¹.
In the case of B19, the Kd is reported as ≤ 1 µM and the koff is reported as ≤ 2 s⁻¹.
With B20 the Kd was ≤ 1 µM and the koff was ≤ 2 s⁻¹.
With B21 the Kd was ≤ 1 µM and the koff was ≤ 2 s⁻¹.
With B22 the Kd was ≤ 1 µM and the koff was ≤ 2 s⁻¹.
In the case of B23, the Kd is reported as ≤ 1 µM and the koff is reported as ≤ 2 s⁻¹.
In the case of B24, the Kd is reported as ≤ 1 µM and the koff is reported as ≤ 2 s⁻¹.
For B25, the Kd was ≤ 1 µM and the koff was ≤ 2 s⁻¹.
B26 was tested, and the Kd was ≤ 1 µM and the koff was ≤ 2 s⁻¹.
With B27 the Kd was ≤ 1 µM and the koff was ≤ 2 s⁻¹.
